Data set [1] deals with the molecule itself. Nature of the data set: crystal structure; T8^Y140F with Ac-CoA bound, 1.7 Å, space group P2_(1); a dimer in the asymmetric unit.
Data set [2] deals with the molecule itself. Nature of the data set: SEC-MALS; size-exclusion chromatography with multi-angle laser light scattering (SEC-MALLS), in solution.

Substitutions are numbered along the chain they refer to. Names may count otherwise.

B1: TacT^Y140F (tRNA-acetylating toxin, Y140F mutant) (enzyme)
chain: MGRVTAPEPLSAFHQVAEFVSGEAVLDDWLKQKGLKNQALGAARTFVVCKKDTKQVAGFYSLATGSVNHTEATGNLRRNMPDPIPVIILARLAVDLSFHGKGLGADLLHDAVLRCYRVAENIGVRAIMVHALTEEAKNFFIHHGFKSSQTQQRTLFLRLPQ
notes: also called T8^Y140F; source: purified; produced in the absence of its antitoxin A8 (E. coli expression strain BL21)
As for B1, the binding result in data set [1] is “binds”.

B2: TacT (tRNA-acetylating toxin), wild type (enzyme)
chain: B1 chain with F140Y
notes: also called T8; the toxin
Regarding B2, the stoichiometry N (as a rule, the number of molecules, sites or subunits per partner or assembly) in data set [2] is 2.

(Values after paper PMC4942678, “A Salmonella Toxin Promotes Persister Formation through Acetylation of tRNA” (Molecular Cell, 2016).)
